Stoichiometry N data for two molecules are collected here from article PMC11646347.

The target in one assay is streptavidin (UniProt P22629). As to the kind of experiment: native MS; native CZE online with ESI and a Q-Exactive UHMR Orbitrap; mixture of standard proteins and protein complexes; background electrolyte 25 mM ammonium acetate pH~7.0, sheath buffer 10 mM ammonium acetate pH~7.0; original sample (about 15 ng consumed) and a 50-fold dilution (0.1 ng CRP loaded).
Assay [1] has as its target T1, C-reactive protein, P02741.
T1 chain: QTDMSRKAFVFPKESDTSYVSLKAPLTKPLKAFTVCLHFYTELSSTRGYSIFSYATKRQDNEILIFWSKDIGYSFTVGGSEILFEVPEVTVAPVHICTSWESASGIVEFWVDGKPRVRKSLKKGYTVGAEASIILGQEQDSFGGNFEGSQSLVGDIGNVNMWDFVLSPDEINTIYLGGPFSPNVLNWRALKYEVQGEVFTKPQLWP
Described as above. Particulars: remark: other sources report otherwise.

As usually defined, the stoichiometry N is the number of molecules, sites or subunits per partner or assembly. Turning to “streptavidin (from UniProt P22629 25-183) (natural protein)”, the stoichiometry N in the assay with streptavidin was determined as 4.

B1: C-reactive protein, P02741 19-224 (natural protein)
chain: QTDMSRKAFVFPKESDTSYVSLKAPLTKPLKAFTVCLHFYTELSSTRGYSIFSYATKRQDNEILIFWSKDIGYSFTVGGSEILFEVPEVTVAPVHICTSWESASGIVEFWVDGKPRVRKSLKKGYTVGAEASIILGQEQDSFGGNFEGSQSLVGDIGNVNMWDFVLSPDEINTIYLGGPFSPNVLNWRALKYEVQGEVFTKPQLWP
For the molecule B1, in assay [1], the stoichiometry N is 5.
